Experiment [1] has as its target T1, Ac-CWAcp-PPPALPPKKR.amide, C3G-derived peptide designed for attachment to an affinity column (N-terminal acetyl; ε-aminocaproic acid (Acp, B) at position 3; C-terminal amide; on the column the Cys side chain is coupled to iodoacetyl agarose (Sulfolink)).
T1 construct: also called Acetyl-CWAcp-C3G; Ac-CWBPPPALPPKKR.amide
T1 peptide: CWPPPALPPKKR
The experiment can be described thus: 19-member array on C3G peptide affinity column, MALDI MS readout.

Experiment [2] concerns the target T2, control peptide Ac-CAcpYGGFL.amide (YGGFL = leucine enkephalin) (not fully specified (residue 1); also: Cys side chain coupled to Sulfolink agarose).
T2 construct: also called Ac-CBYGGFL.amide; Leucine-Enkephalin agarose column
T2 peptide: Ac-CYGGFL-NH2
The experiment can be described thus: nine-member array on control peptide column, A280. Here is the method:
(§1) The column was then washed with 0.5 M NaCl buffer to remove nonspecific binding proteins from the column. Specifically bound protein analogues were then eluted with 1 M hydroxylamine bufffer. Amounts of eluted peptide were monitored by UV absorbance at 280 nm. This procedure was used for both the C3G peptide column and for the control column loaded with Ac-C-AcpYGGFL.amide.
(§2) Affinity chromatography of the arrays of protein analogues was carried out as follows. […] After incubation at room temperature for a period of 6–8 hours the column was washed with 0.5 M NaCl in 0.1 M sodium phosphate, pH 7.0 buffer (6×1 mL) to remove any non-specifically bound proteins. The first two 1 mL fractions were collected and immediately mixed with an equal volume of 1 M NH_2OH, 20 mM NH_4HCO_3, pH 5.5 buffer to cleave any thioester-containing protein analogues. […] Samples of the eluted fractions were monitored by UV absorbance at 280 nm. This procedure was used for both the C3G peptide column and for the control column loaded with Ac-C-Acp-YGGFL.amide. To accommodate MALDI analysis, both the 0.5M NaCl wash and 1 M NH_2OH fractions were desalted on a low pressure, disposable C-18 column, washed with HPLC buffer A and peptide fragments eluted with 1.5 mL 60% acetonitrile in water, 0.1% TFA.

Experiment [3] has as its target T1, Ac-CWAcp-PPPALPPKKR.amide, C3G-derived …. The experiment can be described thus: Example 2: nine-member array on C3G peptide affinity column, MALDI MS readout. Here is the method:
as §1, §2

B1: c-Crk N-terminal SH3 domain (134-191) analogue, L^151P^152 replaced by Gly-[COS]-βAla (other)
chain: AEYVRALFDFNGNDEEDGXFKKGDILRIRDKPEEQWWNAEDSEGKRGMIPVPYVEKYR
modifications: not fully specified; Gly-[COS]-βAla unit (-NH-CH2-CO-S-CH2-CH2-CO-) in place of L151-P152; backbone thioester
notes: Positions count on murine c-Crk; X = -S-CH2CH2-CO- unit; Tested crude in a pooled array; also called LP
Consider B1, for which the binding result in experiment [1] is listed as “binds”.

B2: c-Crk N-terminal SH3 domain (134-191) analogue, dipeptide RI (160-161) replaced by Gly-[COS]-βAla (other)
chain: AEYVRALFDFNGNDEEDLPFKKGDILGXRDKPEEQWWNAEDSEGKRGMIPVPYVEKYR
modifications: not fully specified; Gly-[COS]-βAla unit (-NH-CH2-CO-S-CH2-CH2-CO-) in place of R160-I161; backbone thioester
notes: Positions count on murine c-Crk; X = -S-CH2CH2-CO- unit; also called Gly-SβAla analogue
Turning to B2, the binding result in experiment [1] and in experiment [2] was “no binding” in each case.

B3: c-Crk N-terminal SH3 domain (134-191) analogue, N^146D^147 replaced by Gly-[COS]-βAla (other)
chain: AEYVRALFDFNGGXEEDLPFKKGDILRIRDKPEEQWWNAEDSEGKRGMIPVPYVEKYR
modifications: not fully specified; Gly-[COS]-βAla unit (-NH-CH2-CO-S-CH2-CH2-CO-) in place of N146-D147; backbone thioester
notes: Positions count on murine c-Crk; X = -S-CH2CH2-CO- unit; Tested crude in a pooled array; also called ND
In the case of B3, the binding result in experiment [1] is reported as “binds”.

B4: c-Crk N-terminal SH3 domain (134-191) analogue, dipeptide KG (155-156) replaced by Gly-[COS]-βAla (other)
chain: AEYVRALFDFNGNDEEDLPFKGXDILRIRDKPEEQWWNAEDSEGKRGMIPVPYVEKYR
modifications: not fully specified; Gly-[COS]-βAla unit (-NH-CH2-CO-S-CH2-CH2-CO-) in place of K155-G156; backbone thioester
notes: It is one of the 19 dipeptide positions within c-Crk(146-165); Positions count on murine c-Crk; X = -S-CH2CH2-CO- unit; Tested crude in a pooled array
Turning to B4, the binding result in experiment [1] was “no binding”.

B5: c-Crk N-terminal SH3 domain (134-191) analogue, D^147E^148 replaced by Gly-[COS]-βAla (other)
chain: AEYVRALFDFNGNGXEDLPFKKGDILRIRDKPEEQWWNAEDSEGKRGMIPVPYVEKYR
modifications: not fully specified; Gly-[COS]-βAla unit (-NH-CH2-CO-S-CH2-CH2-CO-) in place of D147-E148; backbone thioester
notes: Positions count on murine c-Crk; X = -S-CH2CH2-CO- unit; Tested crude in a pooled array; also called DE
As to B5, the binding result in experiment [1] is “binds”.

B6: c-Crk N-terminal SH3 domain (134-191) analogue, dipeptide IL (158-159) replaced by Gly-[COS]-βAla (other)
chain: AEYVRALFDFNGNDEEDLPFKKGDGXRIRDKPEEQWWNAEDSEGKRGMIPVPYVEKYR
modifications: not fully specified; Gly-[COS]-βAla unit (-NH-CH2-CO-S-CH2-CH2-CO-) in place of I158-L159; backbone thioester
notes: as for B2
Turning to B6, the binding result in experiment [1] and in experiment [2] was “no binding” each time.

B7: c-Crk N-terminal SH3 domain (134-191) analogue, R^162D^163 replaced by Gly-[COS]-βAla (other)
chain: AEYVRALFDFNGNDEEDLPFKKGDILRIGXKPEEQWWNAEDSEGKRGMIPVPYVEKYR
modifications: not fully specified; Gly-[COS]-βAla unit (-NH-CH2-CO-S-CH2-CH2-CO-) in place of R162-D163; backbone thioester
notes: Positions count on murine c-Crk; X = -S-CH2CH2-CO- unit; also called RD; Gly-SβAla analogue
As for B7, the binding result in experiment [1] is reported as “binds”; in experiment [2], “no binding”.

B8: c-Crk N-terminal SH3 domain (134-191) analogue, dipeptide DI (157-158) replaced by Gly-[COS]-βAla (other)
chain: AEYVRALFDFNGNDEEDLPFKKGGXLRIRDKPEEQWWNAEDSEGKRGMIPVPYVEKYR
modifications: not fully specified; Gly-[COS]-βAla unit (-NH-CH2-CO-S-CH2-CH2-CO-) in place of D157-I158; backbone thioester
notes: as for B2
Turning to B8, the binding result in experiment [1] and in experiment [2] was “no binding” throughout.

B9: c-Crk N-terminal SH3 domain (134-191) analogue, dipeptide GD (156-157) replaced by Gly-[COS]-βAla (other)
chain: AEYVRALFDFNGNDEEDLPFKKGXILRIRDKPEEQWWNAEDSEGKRGMIPVPYVEKYR
modifications: not fully specified; Gly-[COS]-βAla unit (-NH-CH2-CO-S-CH2-CH2-CO-) in place of G156-D157; backbone thioester
notes: G156 stays Gly; Positions count on murine c-Crk; X = -S-CH2CH2-CO- unit; also called Gly-SβAla analogue
Consider B9, for which the binding result in experiment [2] and in experiment [3] was “no binding” each time.

B10: c-Crk N-terminal SH3 domain (134-191) analogue, K^164P^165 replaced by Gly-[COS]-βAla (other)
chain: AEYVRALFDFNGNDEEDLPFKKGDILRIRDGXEEQWWNAEDSEGKRGMIPVPYVEKYR
modifications: not fully specified; Gly-[COS]-βAla unit (-NH-CH2-CO-S-CH2-CH2-CO-) in place of K164-P165; backbone thioester
notes: Positions count on murine c-Crk; X = -S-CH2CH2-CO- unit; also called KP; Gly-SβAla analogue
On to B10, for which the binding result is recorded as “binds” in experiment [1] and “no binding” in experiment [2].

B11: c-Crk N-terminal SH3 domain (134-191) analogue, E^148E^149 replaced by Gly-[COS]-βAla (other)
chain: AEYVRALFDFNGNDGXDLPFKKGDILRIRDKPEEQWWNAEDSEGKRGMIPVPYVEKYR
modifications: not fully specified; Gly-[COS]-βAla unit (-NH-CH2-CO-S-CH2-CH2-CO-) in place of E148-E149; backbone thioester
notes: Positions count on murine c-Crk; X = -S-CH2CH2-CO- unit; Tested crude in a pooled array
As to B11, the binding result in experiment [1] is recorded as “binds”.

B12: c-Crk N-terminal SH3 domain (134-191) analogue, I^161R^162 replaced by Gly-[COS]-βAla (other)
chain: AEYVRALFDFNGNDEEDLPFKKGDILRGXDKPEEQWWNAEDSEGKRGMIPVPYVEKYR
modifications: not fully specified; Gly-[COS]-βAla unit (-NH-CH2-CO-S-CH2-CH2-CO-) in place of I161-R162; backbone thioester
notes: Positions count on murine c-Crk; X = -S-CH2CH2-CO- unit; also called IR; Gly-SβAla analogue
As to B12, the binding result is “binds” in experiment [1] and “no binding” in experiment [2].

B13: c-Crk N-terminal SH3 domain (134-191) analogue, dipeptide DL (150-151) replaced by Gly-[COS]-βAla (other)
chain: AEYVRALFDFNGNDEEGXPFKKGDILRIRDKPEEQWWNAEDSEGKRGMIPVPYVEKYR
modifications: not fully specified; Gly-[COS]-βAla unit (-NH-CH2-CO-S-CH2-CH2-CO-) in place of D150-L151; backbone thioester
notes: as for B11
As to B13, the binding result in experiment [1] is “no binding”.

B14: c-Crk N-terminal SH3 domain (134-191) analogue, D^163K^164 replaced by Gly-[COS]-βAla (other)
chain: AEYVRALFDFNGNDEEDLPFKKGDILRIRGXPEEQWWNAEDSEGKRGMIPVPYVEKYR
modifications: not fully specified; Gly-[COS]-βAla unit (-NH-CH2-CO-S-CH2-CH2-CO-) in place of D163-K164; backbone thioester
notes: Positions count on murine c-Crk; X = -S-CH2CH2-CO- unit; also called DK; Gly-SβAla analogue
For the molecule B14, the binding result in experiment [1] is “binds”; in experiment [2], “no binding”.

B15: c-Crk N-terminal SH3 domain (134-191) analogue, dipeptide ED (149-150) replaced by Gly-[COS]-βAla (other)
chain: AEYVRALFDFNGNDEGXLPFKKGDILRIRDKPEEQWWNAEDSEGKRGMIPVPYVEKYR
modifications: not fully specified; Gly-[COS]-βAla unit (-NH-CH2-CO-S-CH2-CH2-CO-) in place of E149-D150; backbone thioester
notes: as for B11
As to B15, in experiment [1], the binding result is “no binding”.

The record behind these values is patent US6495314 (Scripps Research, dated 2002).
